Consider one substance from patent US11752086B2, “Topical formulations and methods” (MYOCEPT INC., priority 2017, dated 2023).

A short description of this data set: isoelectric point (pI) as stated. Type of data set: physicochemical. The procedure:
For the second study this procedure was modified to include a chromatographic enrichment/purification step over a HiTrap SP-Sepharose cation exchange column (GE Healthcare). Both MCPT-201 and alpha cobratoxin are highly positively charged proteins with a pI of 8.2. They are routinely purified on cation exchange resigns such as SP-Sepharose. The sample buffer in the Franz cell receiving chamber was changed to 50 mM MES-NaOH, 20 mM NaCl, 0.1 mM EDTA, pH 6.0 in order to make samples directly compatible with cation exchange chromatography over SP-Sepharose.

Turning to alpha cobratoxin, the pI was determined as 8.2.
